From US20180267027A1, “FLUORESCENT BIOSENSOR FOR […] ASSAY” (The Regents of the University of California, priority 2015, published 2018)
Where two headings read alike, the source gives them in different places.

Assays:
[1] = molecular target: T1, protein lysine MTase SET7/9 (Homo sapiens, UniProt Q8WTS6); assay: Protein MTase SET7/9 inhibition assay read out with Aeh1-4 biosensor; assay type: biochemical
T1 construct: purchased New England Biolabs Inc (Ipswich, Mass.)
T1 sequence (Q8WTS6 1-366): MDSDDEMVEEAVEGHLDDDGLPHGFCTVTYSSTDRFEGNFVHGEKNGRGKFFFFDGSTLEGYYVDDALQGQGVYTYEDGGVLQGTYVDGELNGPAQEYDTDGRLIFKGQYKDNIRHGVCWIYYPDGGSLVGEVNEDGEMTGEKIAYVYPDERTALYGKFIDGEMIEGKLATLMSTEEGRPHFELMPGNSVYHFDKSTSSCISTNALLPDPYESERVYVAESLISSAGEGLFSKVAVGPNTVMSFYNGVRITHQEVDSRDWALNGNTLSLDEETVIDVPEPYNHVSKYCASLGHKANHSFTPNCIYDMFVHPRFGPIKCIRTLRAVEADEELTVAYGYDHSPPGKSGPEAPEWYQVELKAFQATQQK
Protocol: To initiate the enzyme reaction, 5 μL of H3 peptide substrate (N′-[…]-LAGGKKC-C′) (SEQ ID NO:132) was added to 5 μL of 2×enzyme reaction solution containing SET7/9, SAM, and NEB HMT buffer. Generally, final concentrations are 50 μM H3 peptide, 0.1 U/μL SET7/9, 25 μM SAM, and lx NEB HMT buffer (50 mM Tris, pH 9.0, 5 mM MgCl2, and 4 mM DTT). The reaction solution was incubated at 37° C. for 2 hours to allow the enzyme reaction to proceed.
For the kinetics assay, the reaction conditions are the same as described above except 0.05 U/μL SET7/9 was used, and the enzyme reaction was heat inactivated at different time points. For the inhibition assay, the reaction conditions are the same as described in kinetics assay except varied concentrations of sinefungin was added to the enzyme reaction solution, the reaction solution was incubated at 37° C. for 6 min (see FIG. 16), then heat inactivated by incubation at 65° C. for 15 min. For the inhibition assay shown in FIG. 17, the reaction conditions are the same as described above except 40 μM H3 peptide, 0.1 U/μL SET7/9, 40 μM SAM were used instead.
To initiate the fluorescent biosensor reaction, 10 μL of the enzyme reaction was added to 90 μL of biosensor reaction solution containing renatured RNA, DFHBI, and buffer. […] In vitro fluorescence assays were conducted as described above.

[2] = literature value (Nawrocki et al.); cited from earlier work
[3] = Photophysical properties and fluorescence quantum yields of DFHBI and RNA-DFHBI complexes; assay type: physicochemical; conditions: this work
Protocol: The absorbance was measured at 448 nm and the fluorescence emission spectra was measured with 448 nm excitation for three different concentrations of the Acridine Yellow standard. The absolute quantum yield of Acridine Yellow was taken to be 0.47 as reported by Olmsted, Journal of Physical Chemistry 1979, 83, 2581-2584. The refractive index (η) was taken as 1.36 for ethanol and 1.333 for water (E. Hecht, Optics (4th edition), 2001). UV absorbance and fluorescence spectra were recorded on a Shimadzu 2501 Spectrophotometer (Shimadzu) or a Quantamaster Master 4 L-format scanning spectrofluorometer (Photon Technologies International) equipped with an LPS-220B 75-W xenon lamp and power supply, A-1010B lamp housing with integrated igniter, switchable 814 photon counting/analog photomultiplier detection unit, and MD5020 motor driver.
Quantum yields for DFHBI or RNA-DFHBI complex were determined by measuring the apparent quantum yields (Φsample.app) as a function of increasing total RNA (Ctotal RNA) at a fixed concentration of total DFHBI (CDFHBI). […] The RNA was renatured in buffer at 70° C. for 3 min and cooled to ambient temperature for 5 min prior to addition to the reaction solution. The DFHBI concentration was fixed at 10 or 20 μM in different replicates. The apparent quantum yield is described using the following equation: […]
Then, the apparent quantum yield is related to the dissociation constant Kd and concentration of DFHBI by the following equation: […]
Thus, the dissociation constants Kd and the quantum yield (Φsample) of RNA-DFHBI complexes were determined by least squares fitting to the above equation in Graphpad Prism software.

[4] = In vitro fluorescence assays of SAH biosensors (turn-on, ligand selectivity); assay type: biochemical; conditions: for fluorescence in the presence of ATP: 10 mM ATP; for fluorescence response to SAH at low magnesium: 3 mM magnesium; for fluorescence turn-on: 37° C., 10 mM Mg^2+
Protocol: Other conditions, including temperature, concentrations of MgCl2, DFHBI, ligand or RNA, were varied in different experiments and are indicated in the figures. The RNA was renatured in buffer at 70° C. for 3 min and cooled to ambient temperature for 5 min prior to addition to the reaction solution. DFHBI was added to a solution containing buffer and ligand, and then RNA was added at the end before fluorescence measurement. Binding reactions were performed in 100 μL volumes and were incubated at the indicated temperature in a Corning Costar 3915 96-well black plate until equilibrium was reached, which in some cases takes 30 to 60 minutes. The fluorescence emission was measured using a Molecular Devices SpectraMax Paradigm Multi-Mode detection platform plate reader (Sunnyvale, Calif.) with the following instrument parameters: 448 nm excitation, 506 nm emission.

E. coli BL21* cells = assay: In vivo fluorescence of RNA aptamers by flow cytometry; assay type: cell-based; conditions: 100 μM DFHBI
Protocol: To compare the fluorescence of Spinach2 and cpSpinach2 in live cells, pET31b plasmids encoding the RNA aptamers in a tRNA scaffold were transformed into E. coli BL21* cells. Following IPTG induction of transcription, cells were incubated with DFHBI and fluorescence was quantitated by flow cytometry. The mean cellular fluorescence was measured as a function of increasing DFHBI concentration in the media, in order to determine the optimal conditions for aptamer fluorescence. Unexpectedly, full saturation of fluorescence was not observed, even when E. coli cells were incubated in media containing up to 800 μM DFHBI (FIG. 5). However, the non-specific fluorescence signal increased when DFHBI concentration exceeded 100 μM. Thus, to balance higher fluorescence activation and lower non-specific background, a concentration of 100 μM was adopted for further experiments. Under these conditions, cellular fluorescence activation for Spinach2 and cpSpinach2 was on average 34 and 22-fold over background, respectively (FIG. 6). Thus, cpSpinach2 is a functional alternative to Spinach2. Although it currently performs slightly poorer in terms of fluorescence activation in live cells, improvements are likely possible through directed mutagenesis for higher thermal stability, improved folding efficiency and less Mg^2+ dependency. […]

[5] = system: E. coli BL21* wild-type and ΔMTAN cells; assay: Live cell detection of SAH accumulation, wild-type versus MTAN knockout, flow cytometry; assay type: cell-based; conditions: E. coli BL21* MTAN knockout strain 2
Protocol: A Targetron® Gene Knockout System (Sigma-Aldrich) was used to knock out the MTAN gene from E. coli BL21*, following manufacturer protocols.
Preparation of cell samples for flow cytometry was carried out by inoculating 2 mL of auto-induction media/Carb (F. Studier, Protein Expression and Purification 2005, 41, 207-234) with E. coli BL21* cells from colonies grown on an LB/Carb culture plate, containing pET31b plasmids encoding RNA aptamers. […] Cells were then grown aerobically overnight to saturation (0D600 varied from 5 to 10) and diluted to OD600˜0.01-0.05 in M9 minimal media (pH ˜6.0) with 100 μM DFHBI-1T. Cellular fluorescence was measured for 30,000 cells using a Life Technologies Attune N×T Acoustic Focusing Cytometer.

[6] = Binding affinity analysis of SAH biosensors
Protocol: The SAH concentration (cSAH) was varied, and the fluorescence of the sample with DFHBI but no RNA was subtracted as background to determine relative fluorescence units. The ratio between the fraction of biosensor that is bound by SAH and the total SAH biosensor concentration is given as:
The dissociation constants Kd were determined by least squares fitting to the following equation in Graphpad Prism software: […]

SET7/9 = molecular target: T2, SET7/9 (Homo sapiens, UniProt Q8WTS6); assay: High-throughput screening (HTS) assay of SET7/9 activity and inhibition, Z′ score; assay type: biochemical; conditions: 384-well plate, 16 replicates, 300 μM sinefungin
T2 construct: purchased New England Biolabs Inc (Ipswich, Mass.)
T2 sequence (Q8WTS6 1-366): T1 sequence (Q8WTS6 1-366)
Protocol: For HTS experiments, samples were dispensed into a Grenier 781077 384-well flat bottom black plate using an Eppendorf Repeater […] pipetter to dispense reaction components. Z' scores were calculated from 16 well replicates in the 384-well plate. For the HTS SET7/9 activity assay, 3 μL of H3 peptide or water was added to 9 μL of reaction solution containing SET7/9 MTase, SAM, and NEB HMT Reaction Buffer in each well. Final concentrations are: 0.25 U/10 μL SET7/9, 25 μM SAM, 50 μM H3 peptide and 1×NEB HMT Reaction Buffer (50 mM Tris, pH 9.0, 5 mM MgCl2, and 4 mM DTT). After 30 min incubation at 37° C., to initiate the fluorescent biosensor reaction, 18 μL of biosensor reaction solution containing renatured RNA, DFHBI, and buffer was added to each well. […] In vitro fluorescence assays were conducted as described above. For the HTS SET7/9 inhibition assay, 4.5 μL of sinefungin or water was added to 8 μL of reaction solution containing SET7/9 MTase, and NEB HMT Reaction Buffer in each well. After 15 minutes incubation at 37° C., methylation reaction was initiated by adding 2.5 μL solution containing both SAM and H3 peptide. Final concentrations are: 0.25 U/10 μL SET7/9, 25 μM SAM, 50 μM H3 peptide, 300 μM sinefungin and 1×NEB HMT Reaction Buffer (50 mM Tris, pH 9.0, 5 mM MgCl2, and 4 mM DTT). After 30 min incubation at 37° C., to initiate the fluorescent biosensor reaction, 15 μL of biosensor reaction solution containing renatured RNA, DFHBI, and buffer was added to each well. […] In vitro fluorescence assays were conducted as described above.

[7] = 3 mM magnesium (FIG. 22), read-out: in vitro measured binding affinity for SAH

Nc1ncnc2c1ncn2[C@@H]1O[C@H](C[C@@H](N)CC[C@H](N)C(=O)O)[C@@H](O)[C@H]1O [Sinefungin]
IC50 ([1]; initial SAM concentration 40 μM): 42 ± 16 µM | IC50 ([1]; initial SAM concentration of 25 μM): 26 ± 5 µM

CC1=N/C(=C\c2cc(F)c(O)c(F)c2)C(=O)N1C [DFHBI, (Z)-4-(3,5-difluoro-4-hydroxybenzylidene)-1,2-dimethyl-1H-imidazol-5(4H)-one]
Emission maximum [2]: 489 nm | Excitation Maximum [2]: 423 nm | Extinction coefficient [2]: 30100 M^−1- cm^−1 | Fluorescence quantum yield [2]: 0.0007 | Emission maximum [3]: 502 ± 1 nm | Excitation Maximum [3]: 428 ± 1 nm | Extinction coefficient [3]: 30018 M^−1- cm^−1 | Fluorescence quantum yield ([3]; 30° C., 10 mM MgCl2): 0.00072 ± 0.00013

B1: Spinach2: fluorophore-binding RNA aptamer, SEQ ID NO: 92 (nucleic acid)
chain: GATGTAACTGAATGAAATGGTGAAGGACGGGTCCAGTAGGCTGCTTCGGCAGCCTACTTGTTGAGTAGAGTGTGAGCTCCGTAACTAGTTACATC
modifications: expressed or natural sequence
fluorescence in the presence of ATP [4]: showed the same effect | cellular fluorescence activation over background (E. coli BL21* cells): 34 fold

B2: Mpe1-5: SAH biosensor, SEQ ID NO: 39 (nucleic acid)
chain: ACTTTCGAGGAGCGTTGCAACTCCCTTGTTGAGTAGAGTGTGAGCTCCGTAACTAGTTACATCGCAAGATGTAACTGAATGAAATGGTGAAGGACGGGTCCAGGGAGCCAGGCTCGAAAGTCATCCCCCGATGCAACGGCGCTCACCCGCA
fluorescence response to SAM ([4]; 10 μM of SAM): slight response to SAM | fluorescence response to SAH at low magnesium [4]: high fluorescence response to SAH | fluorescence in the presence of ATP [4]: lower fluorescence | fluorescence turn-on [4]: ~4 fold | fold change in fluorescence between wild-type and MTAN knockout strain 2 [5]: 2.0 × | Kd [6, 7]: 19 nM | Kd ([6]; 10 mM Mg^2+, 37° C., read-out: Kd for SAH): 75 ± 7 nM

B3: Nmo1-4: SAH biosensor, SEQ ID NO: 65 (Table 2 prints 64) (nucleic acid)
chain: CTCGCCGAGGAGCGCTGCAACAGGTTGTTGAGTAGAGTGTGAGCTCCGTAACTAGTTACATCGCAAGATGTAACTGAATGAAATGGTGAAGGACGGGTCCACCTGCCAGGCTCGGCGATTATCGGGACCTTTAAACCAACGGCGCTCGGTTCAG
Z′ score, inhibitor screen (SET7/9): 0.75 | fluorescence response to SAH at low magnesium [4]: high fluorescence response to SAH | fluorescence turn-on [4]: ~9 fold | fold change in fluorescence between wild-type and MTAN knockout strain 2 [5]: 4.8 × | Kd [6, 7]: 750 nM
